This is an account of results in patent US20250109215A1 (Xencor, published 2025).

What is called Kd is the free concentration of one partner at which half of the binding sites on the other are occupied at equilibrium, for simple one-to-one binding.

The target in assay [1] is T1, human CD3 (human, UniProt P07766 23-126; P04234 22-105).
T1 construct: The legend says only human CD3
The assay is described as follows: SPR; human CD3-Fc (printed 'CD388-Fc', Sino Biological) covalently bound to the chip; test article passed over at 31.25, 125, 500 and 2000 nM. A general note: Surface plasmon resonance follows binding to a sensor surface in real time, without labels.

For assay [2], the target named is T1, human CD3. The assay is described as follows: SPR; human CD3-Fc (printed 'CD388-Fc', Sino Biological) covalently bound to the chip; test article passed over at 3.125, 12.5, 50 and 200 nM.
In assay [3] the target is T2, cyno CD3 (cynomolgus monkey, UniProt Q95LI5 22-117; Q95LI8 22-105).
T2 construct: The legend says only cyno CD3; also called cynomolgus monkey CD3
T2 sequence (Q95LI5 22-117, form in doubt, chain 1 of 2): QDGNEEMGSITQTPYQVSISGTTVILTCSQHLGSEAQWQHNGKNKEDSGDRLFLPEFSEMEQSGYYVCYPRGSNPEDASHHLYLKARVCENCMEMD
T2 sequence (Q95LI8 22-105, form in doubt, chain 2 of 2): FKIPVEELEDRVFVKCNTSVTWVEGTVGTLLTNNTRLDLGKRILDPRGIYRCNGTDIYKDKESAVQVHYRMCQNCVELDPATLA
The assay is described as follows: SPR; cynomolgus monkey CD3-Fc (printed 'CD388-Fc', Sino Biological) covalently bound to the chip; test article passed over at 31.25, 125, 500 and 2000 nM.

For assay [4], the target named is T2, cyno CD3. The assay is described as follows: SPR; cynomolgus monkey CD3-Fc (printed 'CD388-Fc', Sino Biological) covalently bound to the chip; test article passed over at 3.125, 12.5, 50 and 200 nM.

T1 sequence (P07766 23-126, chain 1 of 2): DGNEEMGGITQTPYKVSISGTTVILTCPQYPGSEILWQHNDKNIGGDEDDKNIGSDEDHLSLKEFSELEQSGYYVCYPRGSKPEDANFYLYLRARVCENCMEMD
T1 sequence (P04234 22-105, chain 2 of 2): as the sequence (Q95LI8 22-105, form in doubt, chain 2 of 2) above, with V5I, K15N, V20I, T32S, N33D, N34I, A64T, N74S, L83V counted along it

B1: XENP14388 (bispecific antibody)
HC 1 (Fab-Fc): QVQLVQSGAEVKKPGASVKVSCKASGYTFTSYNMHWVRQAPGQRLEWMGAIYPGNGATSYSQKFQGRVTITADTSASTAYMELSSLRSEDTAVYYCARSYYMGGDWYFDVWGAGTLVTVSSASTKGPSVFPLAPSSKSTSGGTAALGCLVKDYFPEPVTVSWNSGALTSGVHTFPAVLQSSGLYSLSSVVTVPSSSLGTQTYICNVNHKPSDTKVDKKVEPKSCDKTHTCPPCPAPPVAGPSVFLFPPKPKDTLMISRTPEVTCVVVDVKHEDPEVKFNWYVDGVEVHNAKTKPREEEYNSTYRVVSVLTVLHQDWLNGKEYKCKVSNKALPAPIEKTISKAKGQPREPQVYTLPPSREEMTKNQVSLTCDVSGFYPSDIAVEWESDGQPENNYKTTPPVLDSDGSFFLYSKLTVDKSRWEQGDVFSCSVMHEALHNHYTQKSLSLSPGK
HC 2 (scFv-Fc): not shown
light: QIVLTQSPSSLSASVGDRVTITCRASWSVSYIHWFQQKPGKSPKPLIYATSNLASGVPVRFSGSGSGTDYTLTISSLQPEDFATYYCQQWTHNPPTFGGGTKVEIKRTVAAPSVFIFPPSDEQLKSGTASVVCLLNNFYPREAKVQWKVDNALQSGNSQESVTEQDSKDSTYSLSSTLTLSKADYEKHKVYACEVTHQGLSSPVTKSFNRGEC
notes: anti-CD3 scFv H1.31_L1.47; also called Anti-CD20 (C2B8_H1.202_L1.113) x Anti-CD3 (H1.31_L1.47) Fab-scFv-Fc; CD3low
Regarding B1, the Kd in assay [1] is 1200 nM; in assay [2], around 2000 nM; in assay [3], 1200 nM; in assay [4], around 1000 nM.

B2: XENP14393 (bispecific antibody)
HC 1 (Fab-Fc): QVQLVQSGAEVKKPGASVKVSCKASGYTFTSYNMHWVRQAPGQRLEWMGAIYPGNGATSYSQKFQGRVTITADTSASTAYMELSSLRSEDTAVYYCARSYYMGGDWYFDVWGAGTLVTVSSASTKGPSVFPLAPSSKSTSGGTAALGCLVKDYFPEPVTVSWNSGALTSGVHTFPAVLQSSGLYSLSSVVTVPSSSLGTQTYICNVNHKPSDTKVDKKVEPKSCDKTHTCPPCPAPPVAGPSVFLFPPKPKDTLMISRTPEVTCVVVDVKHEDPEVKFNWYVDGVEVHNAKTKPREEEYNSTYRVVSVLTVLHQDWLNGKEYKCKVSNKALPAPIEKTISKAKGQPREPQVYTLPPSREEMTKNQVSLTCDVSGFYPSDIAVEWESDGQPENNYKTTPPVLDSDGSFFLYSKLTVDKSRWEQGDVFSCSVMHEALHNHYTQKSLSLSPGK
HC 2 (scFv-Fc): not shown
light: QIVLTQSPSSLSASVGDRVTITCRASWSVSYIHWFQQKPGKSPKPLIYATSNLASGVPVRFSGSGSGTDYTLTISSLQPEDFATYYCQQWTHNPPTFGGGTKVEIKRTVAAPSVFIFPPSDEQLKSGTASVVCLLNNFYPREAKVQWKVDNALQSGNSQESVTEQDSKDSTYSLSSTLTLSKADYEKHKVYACEVTHQGLSSPVTKSFNRGEC
notes: anti-CD3 scFv H1.90_L1.47; also called Anti-CD20 (C2B8_H1.202_L1.113) x Anti-CD3 (H1.90_L1.47) Fab-scFv-Fc
Take B2: the Kd in assay [2] and in assay [4] was 120 nM in each case.

B3: XENP16376 (bispecific antibody)
HC 1 (Fab-Fc): QVQLVQSGAEVKKPGASVKVSCKASGYTFTSYNMHWVRQAPGQRLEWMGAIYPGNGATSYSQKFQGRVTITADTSASTAYMELSSLRSEDTAVYYCARSYYMGGDWYFDVWGAGTLVTVSSASTKGPSVFPLAPSSKSTSGGTAALGCLVKDYFPEPVTVSWNSGALTSGVHTFPAVLQSSGLYSLSSVVTVPSSSLGTQTYICNVNHKPSDTKVDKKVEPKSCDKTHTCPPCPAPPVAGPSVFLFPPKPKDTLMISRTPEVTCVVVDVKHEDPEVKFNWYVDGVEVHNAKTKPREEEYNSTYRVVSVLTVLHQDWLNGKEYKCKVSNKALPAPIEKTISKAKGQPREPQVYTLPPSREEMTKNQVSLTCDVSGFYPSDIAVEWESDGQPENNYKTTPPVLDSDGSFFLYSKLTVDKSRWEQGDVFSCSVMHEALHNHYTQKSLSLSPGK
HC 2 (scFv-Fc): not shown
light: QIVLTQSPSSLSASVGDRVTITCRASWSVSYIHWFQQKPGKSPKPLIYATSNLASGVPVRFSGSGSGTDYTLTISSLQPEDFATYYCQQWTHNPPTFGGGTKVEIKRTVAAPSVFIFPPSDEQLKSGTASVVCLLNNFYPREAKVQWKVDNALQSGNSQESVTEQDSKDSTYSLSSTLTLSKADYEKHKVYACEVTHQGLSSPVTKSFNRGEC
notes: anti-CD3 scFv H1.108_L1.47; also called Anti-CD20 (C2B8_H1.202_L1.113) x Anti-CD3 (H1.108_L1.47) Fab-scFv-Fc
For the molecule B3, the Kd was determined as 1100 nM in assay [1] and 860 nM in assay [3].

B4: XENP14390 (bispecific antibody)
HC 1 (Fab-Fc): QVQLVQSGAEVKKPGASVKVSCKASGYTFTSYNMHWVRQAPGQRLEWMGAIYPGNGATSYSQKFQGRVTITADTSASTAYMELSSLRSEDTAVYYCARSYYMGGDWYFDVWGAGTLVTVSSASTKGPSVFPLAPSSKSTSGGTAALGCLVKDYFPEPVTVSWNSGALTSGVHTFPAVLQSSGLYSLSSVVTVPSSSLGTQTYICNVNHKPSDTKVDKKVEPKSCDKTHTCPPCPAPPVAGPSVFLFPPKPKDTLMISRTPEVTCVVVDVKHEDPEVKFNWYVDGVEVHNAKTKPREEEYNSTYRVVSVLTVLHQDWLNGKEYKCKVSNKALPAPIEKTISKAKGQPREPQVYTLPPSREEMTKNQVSLTCDVSGFYPSDIAVEWESDGQPENNYKTTPPVLDSDGSFFLYSKLTVDKSRWEQGDVFSCSVMHEALHNHYTQKSLSLSPGK
HC 2 (scFv-Fc): not shown
light: QIVLTQSPSSLSASVGDRVTITCRASWSVSYIHWFQQKPGKSPKPLIYATSNLASGVPVRFSGSGSGTDYTLTISSLQPEDFATYYCQQWTHNPPTFGGGTKVEIKRTVAAPSVFIFPPSDEQLKSGTASVVCLLNNFYPREAKVQWKVDNALQSGNSQESVTEQDSKDSTYSLSSTLTLSKADYEKHKVYACEVTHQGLSSPVTKSFNRGEC
notes: anti-CD3 scFv H1.33_L1.47; also called Anti-CD20 (C2B8_H1.202_L1.113) x Anti-CD3 (H1.33_L1.47) Fab-scFv-Fc; CD3med
Take B4: the Kd in assay [1] is 220 nM; in assay [2] it was 110 nM; in assay [3], 160 nM; in assay [4] it was 100 nM.

B5: XENP16373 (bispecific antibody)
HC 1 (Fab-Fc): QVQLVQSGAEVKKPGASVKVSCKASGYTFTSYNMHWVRQAPGQRLEWMGAIYPGNGATSYSQKFQGRVTITADTSASTAYMELSSLRSEDTAVYYCARSYYMGGDWYFDVWGAGTLVTVSSASTKGPSVFPLAPSSKSTSGGTAALGCLVKDYFPEPVTVSWNSGALTSGVHTFPAVLQSSGLYSLSSVVTVPSSSLGTQTYICNVNHKPSDTKVDKKVEPKSCDKTHTCPPCPAPPVAGPSVFLFPPKPKDTLMISRTPEVTCVVVDVKHEDPEVKFNWYVDGVEVHNAKTKPREEEYNSTYRVVSVLTVLHQDWLNGKEYKCKVSNKALPAPIEKTISKAKGQPREPQVYTLPPSREEMTKNQVSLTCDVSGFYPSDIAVEWESDGQPENNYKTTPPVLDSDGSFFLYSKLTVDKSRWEQGDVFSCSVMHEALHNHYTQKSLSLSPGK
HC 2 (scFv-Fc): EVQLVESGGGLVQPGGSLRLSCAASGFTFSTYAMNWVRQAPGKGLEWVGRIRSKYNNYATYYADSVKGRFTISRDDSKNTLYLQMNSLRAEDTAVYYCVRHGNFGDQYVSWFDYWGQGTLVTVSSGKPGSGKPGSGKPGSGKPGSQAVVTQEPSLTVSPGGTVTLTCGSSTGAVTTSNYANWVQQKPGKSPRGLIGGTNKRAPGVPARFSGSLLGGKAALTISGAQPEDEADYYCALWYSNHWVFGGGTKLTVLEPKSSDKTHTCPPCPAPPVAGPSVFLFPPKPKDTLMISRTPEVTCVVVDVKHEDPEVKFNWYVDGVEVHNAKTKPREEQYNSTYRVVSVLTVLHQDWLNGKEYKCKVSNKALPAPIEKTISKAKGQPREPQVYTLPPSREQMTKNQVKLTCLVKGFYPSDIAVEWESNGQPENNYKTTPPVLDSDGSFFLYSKLTVDKSRWQQGNVFSCSVMHEALHNHYTQKSLSLSPGK
light: QIVLTQSPSSLSASVGDRVTITCRASWSVSYIHWFQQKPGKSPKPLIYATSNLASGVPVRFSGSGSGTDYTLTISSLQPEDFATYYCQQWTHNPPTFGGGTKVEIKRTVAAPSVFIFPPSDEQLKSGTASVVCLLNNFYPREAKVQWKVDNALQSGNSQESVTEQDSKDSTYSLSSTLTLSKADYEKHKVYACEVTHQGLSSPVTKSFNRGEC
notes: anti-CD3 scFv H1.105_L1.47; also called Anti-CD20 (C2B8_H1.202_L1.113) x Anti-CD3 (H1.105_L1.47) Fab-scFv-Fc
As to B5, the Kd in assay [1] worked out at 4000 nM; in assay [3], 420 nM.

B6: XENP16375 (bispecific antibody)
HC 1 (Fab-Fc): QVQLVQSGAEVKKPGASVKVSCKASGYTFTSYNMHWVRQAPGQRLEWMGAIYPGNGATSYSQKFQGRVTITADTSASTAYMELSSLRSEDTAVYYCARSYYMGGDWYFDVWGAGTLVTVSSASTKGPSVFPLAPSSKSTSGGTAALGCLVKDYFPEPVTVSWNSGALTSGVHTFPAVLQSSGLYSLSSVVTVPSSSLGTQTYICNVNHKPSDTKVDKKVEPKSCDKTHTCPPCPAPPVAGPSVFLFPPKPKDTLMISRTPEVTCVVVDVKHEDPEVKFNWYVDGVEVHNAKTKPREEEYNSTYRVVSVLTVLHQDWLNGKEYKCKVSNKALPAPIEKTISKAKGQPREPQVYTLPPSREEMTKNQVSLTCDVSGFYPSDIAVEWESDGQPENNYKTTPPVLDSDGSFFLYSKLTVDKSRWEQGDVFSCSVMHEALHNHYTQKSLSLSPGK
HC 2 (scFv-Fc): not shown
light: QIVLTQSPSSLSASVGDRVTITCRASWSVSYIHWFQQKPGKSPKPLIYATSNLASGVPVRFSGSGSGTDYTLTISSLQPEDFATYYCQQWTHNPPTFGGGTKVEIKRTVAAPSVFIFPPSDEQLKSGTASVVCLLNNFYPREAKVQWKVDNALQSGNSQESVTEQDSKDSTYSLSSTLTLSKADYEKHKVYACEVTHQGLSSPVTKSFNRGEC
notes: anti-CD3 scFv H1.107_L1.47; also called Anti-CD20 (C2B8_H1.202_L1.113) x Anti-CD3 (H1.107_L1.47) Fab-scFv-Fc
B6: the Kd in assay [1] stood at 1000 nM; in assay [3], 880 nM.

B7: XENP16374 (bispecific antibody)
HC 1 (Fab-Fc): QVQLVQSGAEVKKPGASVKVSCKASGYTFTSYNMHWVRQAPGQRLEWMGAIYPGNGATSYSQKFQGRVTITADTSASTAYMELSSLRSEDTAVYYCARSYYMGGDWYFDVWGAGTLVTVSSASTKGPSVFPLAPSSKSTSGGTAALGCLVKDYFPEPVTVSWNSGALTSGVHTFPAVLQSSGLYSLSSVVTVPSSSLGTQTYICNVNHKPSDTKVDKKVEPKSCDKTHTCPPCPAPPVAGPSVFLFPPKPKDTLMISRTPEVTCVVVDVKHEDPEVKFNWYVDGVEVHNAKTKPREEEYNSTYRVVSVLTVLHQDWLNGKEYKCKVSNKALPAPIEKTISKAKGQPREPQVYTLPPSREEMTKNQVSLTCDVSGFYPSDIAVEWESDGQPENNYKTTPPVLDSDGSFFLYSKLTVDKSRWEQGDVFSCSVMHEALHNHYTQKSLSLSPGK
HC 2 (scFv-Fc): not shown
light: QIVLTQSPSSLSASVGDRVTITCRASWSVSYIHWFQQKPGKSPKPLIYATSNLASGVPVRFSGSGSGTDYTLTISSLQPEDFATYYCQQWTHNPPTFGGGTKVEIKRTVAAPSVFIFPPSDEQLKSGTASVVCLLNNFYPREAKVQWKVDNALQSGNSQESVTEQDSKDSTYSLSSTLTLSKADYEKHKVYACEVTHQGLSSPVTKSFNRGEC
notes: anti-CD3 scFv H1.106_L1.47; also called Anti-CD20 (C2B8_H1.202_L1.113) x Anti-CD3 (H1.106_L1.47) Fab-scFv-Fc
For the molecule B7, the figures for the Kd in assay [1] and in assay [3] were 1300 nM and 1100 nM, respectively.
